{"source": "patent US20250304636", "data": [{"substance": "Syk", "values": [{"measurement": "tyrosine phosphorylation of Syk (IP of Syk, western blot with pan-phospho-tyrosine antibody 4G10)", "setting": "DAP12 mutant P17", "result": "P17, P19 and P23 were able to induce tyrosine phosphorylation of Syk"}, {"measurement": "tyrosine phosphorylation of Syk (IP of Syk, western blot with pan-phospho-tyrosine antibody 4G10)", "setting": "DAP12 mutant P19", "result": "P17, P19 and P23 were able to induce tyrosine phosphorylation of Syk"}, {"measurement": "tyrosine phosphorylation of Syk (IP of Syk, western blot with pan-phospho-tyrosine antibody 4G10)", "setting": "DAP12 mutant P23", "result": "P17, P19 and P23 were able to induce tyrosine phosphorylation of Syk"}]}]}
